Results taken from the supplement of paper PMC12764529.
± gives the half width of the 95% confidence interval.

Tests used:
[1] = folding stability dG unfold from trypsin proteolysis; higher = more stable
In short: (§1)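 Digests were run with trypsin and chymotrypsin at 11 concentrations in threefold dilutions, plus a no-protease condition, on designed mini-proteins in a PA-tagged cDNA display construct. The mini-proteins were under 80 residues, had no cysteine, and were kept only when AlphaFold2 dimer inter-PAE was above 15. After sequencing, Bayesian fitting of the counts gave K50, from which unfolding free energy was derived against a sequence-predicted unfolded-state K50 and a shared folded-state K50, per protease or combined.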

[2] = folding stability dG unfold from chymotrypsin proteolysis; higher = more stable
In short: as §1

[3] = folding stability dG unfold (combined trypsin and chymotrypsin); higher = more stable
In short: as §1

With “SAGGSAGGSGPKPRLIKLTFLLEPGKVEEFAQALRDAGFEIVSVEVEPLPDGGERATVTVRIDSAGGSAGGS [r12_905_TrMRF]” the “folding stability dG unfold” value [1] was 2.81 ± 0.093 kcal/mol, the “folding stability dG unfold” value [2] was 3.82 ± 0.07 kcal/mol and the “folding stability dG unfold” value [3] was 3.56 ± 0.062 kcal/mol.

For “SAGGSAGGSGPNIKVSSSTSTYTLPNGKKVTVKTIVIETENSKYLIVVLTDPNGKSIVFIKPLSAGGSAGGS [r12_213_TrMRF]”, the “folding stability dG unfold” value [1] was 3.21 ± 0.23 kcal/mol, the “folding stability dG unfold” value [2] was 3.92 ± 0.15 kcal/mol and the “folding stability dG unfold” value [3] was 3.89 ± 0.28 kcal/mol.

With “SAGGSAGGSGSLLEKLGLEPNSTVTVTVTPEEAEKIRAEPRVKEIKREPTPEDTYLYTITVVASAGGSAGGS [r12_750_JUSTAS]” the “folding stability dG unfold” value [1] was -0.705 ± 0.32 kcal/mol, the “folding stability dG unfold” value [2] was 0.0205 ± 0.2 kcal/mol and the “folding stability dG unfold” value [3] was -0.302 ± 0.28 kcal/mol.

For “SAGGSAGGSGSMEFTIDDEDLRIEIKFLPGGKVEITIWDPTNNVPLKTIETEPEEIEEVIEKLSAGGSAGGS [r20_129_JUSTAS]”, the “folding stability dG unfold” value [1] was 2.18 ± 0.17 kcal/mol, the “folding stability dG unfold” value [2] was 2.05 ± 0.048 kcal/mol and the “folding stability dG unfold” value [3] was 2.15 ± 0.082 kcal/mol.

With “SAGGSAGGSGSMSIPVGSPEALREYLRERLPPEADLSEEELEALVEELLAKASIDSDGRLHLASAGGSAGGS [r12_983_JUSTAS]” the “folding stability dG unfold” value [1] was 1.65 ± 0.039 kcal/mol, the “folding stability dG unfold” value [2] was 2.207 ± 0.012 kcal/mol and the “folding stability dG unfold” value [3] was 2.05 ± 0.053 kcal/mol.

For “SAGGSAGGSGSMTTTTDPNSDITVSSIGSPSGPPVTATLNPKTGTVTVTVGGTPVTIPLDALSSAGGSAGGS [r12_650_JUSTAS]”, the “folding stability dG unfold” value [1] was 0.331 ± 0.059 kcal/mol, the “folding stability dG unfold” value [2] was 1.32 ± 0.034 kcal/mol and the “folding stability dG unfold” value [3] was 0.987 ± 0.045 kcal/mol.

In the case of “SAGGSAGGSGSSSLLEETTDASGVRHLLTLVRLPGGKVLLVTTTVYPSGESTTTTEETDGSLLSAGGSAGGS [r12_995_JUSTAS]”, the “folding stability dG unfold” value [1] is reported as 2.58 ± 0.06 kcal/mol, the “folding stability dG unfold” value [2] is reported as 1.53 ± 0.036 kcal/mol and the “folding stability dG unfold” value [3] is reported as 2.11 ± 0.059 kcal/mol.

With “SAGGSAGGSGSSSMPVTVEVKPLATEVDPSNGLVTVTELVTVTRGDTTTLTVTTTTLPPGAPASAGGSAGGS [r12_1010_JUSTAS]” the “folding stability dG unfold” value [1] was 1.16 ± 0.027 kcal/mol, the “folding stability dG unfold” value [2] was 0.00037 ± 0.064 kcal/mol and the “folding stability dG unfold” value [3] was 0.591 ± 0.098 kcal/mol.

With “SAGGSAGGSGSSTSANAGGIVTSSSTVPLPPDTRPVSVSTSTPSSKPVKTTVLPDKTVTTPLGSAGGSAGGS [r12_994_JUSTAS]” the “folding stability dG unfold” value [1] was 1.01 ± 0.035 kcal/mol, the “folding stability dG unfold” value [2] was 1.55 ± 0.028 kcal/mol and the “folding stability dG unfold” value [3] was 1.38 ± 0.048 kcal/mol.

With “SAGGSAGGSGVEITLPNKDELIEYLKKKFAEKGGKIKKIKIEPIGPNMYKALIETDPNDPYFKSAGGSAGGS [r12_647_TrMRF]” the “folding stability dG unfold” value [1] was 0.759 ± 0.069 kcal/mol, the “folding stability dG unfold” value [2] was 0.532 ± 0.17 kcal/mol and the “folding stability dG unfold” value [3] was 0.611 ± 0.13 kcal/mol.

With “SAGGSAGGSGYTTTTSTSISLSPTSFTVTTTTTTTDPVTKTTTVTTTTTTVPLPPSLLSLVSSSAGGSAGGS [r12_885_JUSTAS]” the “folding stability dG unfold” value [1] was 2.21 ± 0.17 kcal/mol, the “folding stability dG unfold” value [2] was 2.97 ± 0.052 kcal/mol and the “folding stability dG unfold” value [3] was 2.5 ± 0.2 kcal/mol.

For “SAGGSAGGSIEIFKSPEGWYVRIWFPGKPQVIPIDDAEDLKNFEIPIPNGRPIKVEILPPKDLSAGGSAGGS [r12_730_TrROS]”, the “folding stability dG unfold” value [1] was 1.66 ± 0.047 kcal/mol, the “folding stability dG unfold” value [2] was 2.32 ± 0.032 kcal/mol and the “folding stability dG unfold” value [3] was 2.13 ± 0.059 kcal/mol.

For “SAGGSAGGSIFIHWTYEMEHERDPDDPDEPRMKMKIKDWVISIPEDDPDKLKELADKLGIPIISAGGSAGGS [r12_249_TrROS]”, the “folding stability dG unfold” value [1] was 0.577 ± 0.087 kcal/mol, the “folding stability dG unfold” value [2] was 1.69 ± 0.068 kcal/mol and the “folding stability dG unfold” value [3] was 1.24 ± 0.11 kcal/mol.

For “SAGGSAGGSIKIPPGQMIHIRYEHGGKKREYSFTIDPNDGKIDEIIPPDNLPGYKIEEIHIVPSAGGSAGGS [r12_6_TrROS]”, the “folding stability dG unfold” value [1] was -0.431 ± 0.33 kcal/mol, the “folding stability dG unfold” value [2] was 0.729 ± 0.3 kcal/mol and the “folding stability dG unfold” value [3] was 0.307 ± 0.34 kcal/mol.

For “SAGGSAGGSIKITIYDIMRMLGPNAPPAEWVEKVKHLAKWLADKLGLPDVEIEVEVMSPDQFPSAGGSAGGS [r12_666_TrROS]”, the “folding stability dG unfold” value [1] was 3.3 ± 0.25 kcal/mol, the “folding stability dG unfold” value [2] was 4.49 ± 0.13 kcal/mol and the “folding stability dG unfold” value [3] was 4.06 ± 0.17 kcal/mol.

For “SAGGSAGGSILVIKIKFPGNGRPIHYPIKDPEDFDRVLKKAKERFPGYDKDNIKEAEIYPLPPSAGGSAGGS [r12_852_TrROS]”, the “folding stability dG unfold” value [1] was -0.436 ± 0.22 kcal/mol, the “folding stability dG unfold” value [2] was -0.00689 ± 0.29 kcal/mol and the “folding stability dG unfold” value [3] was -0.0696 ± 0.17 kcal/mol.

With “SAGGSAGGSISIDPAKVLEVKTRANGQLLITTEDEVYVVDPSTGTVTKITKEEAEKLPEDVPLLSAGGSAGG [r6_890_JUSTAS]” the “folding stability dG unfold” value [1] was 1.9 ± 0.042 kcal/mol, the “folding stability dG unfold” value [2] was 1.94 ± 0.037 kcal/mol and the “folding stability dG unfold” value [3] was 1.96 ± 0.15 kcal/mol.

With “SAGGSAGGSITPEEAKALAEEIKKALGVPDVEVLEIRVERDPERDFYTADIVIRLPDGSVIRASAGGSAGGS [r12_508_TrMRF]” the “folding stability dG unfold” value [1] was 2.05 ± 0.051 kcal/mol, the “folding stability dG unfold” value [2] was 1.04 ± 0.064 kcal/mol and the “folding stability dG unfold” value [3] was 1.7 ± 0.11 kcal/mol.

With “SAGGSAGGSITVEVEVEIVDEVEDPNTQGYRPVRVSRIPITIPVPESWSEEDIEAAVKEAIEKASAGGSAGG [r6_494_JUSTAS]” the “folding stability dG unfold” value [1] was 1.1 ± 0.047 kcal/mol, the “folding stability dG unfold” value [2] was 2.13 ± 0.022 kcal/mol and the “folding stability dG unfold” value [3] was 1.7 ± 0.15 kcal/mol.

With “SAGGSAGGSIVFRSPEQAKEWLDNFPPGNEVNIHVQGPDTGQPQEFEIKIPPPKPEYDPDGKPSAGGSAGGS [r12_393_TrROS]” the “folding stability dG unfold” value [1] was -0.124 ± 0.088 kcal/mol, the “folding stability dG unfold” value [2] was -0.773 ± 0.54 kcal/mol and the “folding stability dG unfold” value [3] was -0.169 ± 0.32 kcal/mol.

With “SAGGSAGGSKAGQPIEGPVKIKFTSNGKPHEIDVEVYVLPPGNLIIYFPDESIMLPADNIEIESAGGSAGGS [r12_790_TrROS]” the “folding stability dG unfold” value [1] was 1.09 ± 0.072 kcal/mol, the “folding stability dG unfold” value [2] was 1.91 ± 0.078 kcal/mol and the “folding stability dG unfold” value [3] was 1.6 ± 0.063 kcal/mol.
